Paper doi:10.1101/2023.11.01.565136

Biological target: T1, Full-length human E6AP (E6-associated protein) (human), Q05086
T1 chain: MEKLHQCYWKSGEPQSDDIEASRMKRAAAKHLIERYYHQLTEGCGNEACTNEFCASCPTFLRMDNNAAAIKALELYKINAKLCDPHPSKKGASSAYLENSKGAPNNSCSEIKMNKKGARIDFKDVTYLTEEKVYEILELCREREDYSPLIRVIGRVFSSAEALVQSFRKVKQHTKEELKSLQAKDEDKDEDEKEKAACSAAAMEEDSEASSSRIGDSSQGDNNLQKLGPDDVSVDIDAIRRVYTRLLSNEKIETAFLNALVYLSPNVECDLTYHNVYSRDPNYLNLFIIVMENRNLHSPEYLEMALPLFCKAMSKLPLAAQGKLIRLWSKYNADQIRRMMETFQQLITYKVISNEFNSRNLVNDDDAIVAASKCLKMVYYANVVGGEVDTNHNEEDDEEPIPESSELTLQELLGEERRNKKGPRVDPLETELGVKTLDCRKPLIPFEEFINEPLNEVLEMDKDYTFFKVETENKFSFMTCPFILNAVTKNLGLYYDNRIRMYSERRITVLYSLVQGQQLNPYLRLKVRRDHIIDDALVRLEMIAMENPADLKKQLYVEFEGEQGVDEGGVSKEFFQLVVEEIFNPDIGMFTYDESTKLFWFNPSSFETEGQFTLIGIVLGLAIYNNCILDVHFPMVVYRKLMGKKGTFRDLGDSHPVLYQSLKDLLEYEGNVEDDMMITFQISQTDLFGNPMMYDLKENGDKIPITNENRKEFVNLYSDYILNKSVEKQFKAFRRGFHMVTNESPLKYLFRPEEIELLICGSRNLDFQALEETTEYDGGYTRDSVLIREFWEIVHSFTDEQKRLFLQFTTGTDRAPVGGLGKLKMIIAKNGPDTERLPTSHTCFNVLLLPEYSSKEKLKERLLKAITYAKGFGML
Test: mass photometry
Details: remark: other sources report otherwise

B1: Full-length human E6AP (E6-associated protein), Q05086 1-875 (enzyme)
chain: MEKLHQCYWKSGEPQSDDIEASRMKRAAAKHLIERYYHQLTEGCGNEACTNEFCASCPTFLRMDNNAAAIKALELYKINAKLCDPHPSKKGASSAYLENSKGAPNNSCSEIKMNKKGARIDFKDVTYLTEEKVYEILELCREREDYSPLIRVIGRVFSSAEALVQSFRKVKQHTKEELKSLQAKDEDKDEDEKEKAACSAAAMEEDSEASSSRIGDSSQGDNNLQKLGPDDVSVDIDAIRRVYTRLLSNEKIETAFLNALVYLSPNVECDLTYHNVYSRDPNYLNLFIIVMENRNLHSPEYLEMALPLFCKAMSKLPLAAQGKLIRLWSKYNADQIRRMMETFQQLITYKVISNEFNSRNLVNDDDAIVAASKCLKMVYYANVVGGEVDTNHNEEDDEEPIPESSELTLQELLGEERRNKKGPRVDPLETELGVKTLDCRKPLIPFEEFINEPLNEVLEMDKDYTFFKVETENKFSFMTCPFILNAVTKNLGLYYDNRIRMYSERRITVLYSLVQGQQLNPYLRLKVRRDHIIDDALVRLEMIAMENPADLKKQLYVEFEGEQGVDEGGVSKEFFQLVVEEIFNPDIGMFTYDESTKLFWFNPSSFETEGQFTLIGIVLGLAIYNNCILDVHFPMVVYRKLMGKKGTFRDLGDSHPVLYQSLKDLLEYEGNVEDDMMITFQISQTDLFGNPMMYDLKENGDKIPITNENRKEFVNLYSDYILNKSVEKQFKAFRRGFHMVTNESPLKYLFRPEEIELLICGSRNLDFQALEETTEYDGGYTRDSVLIREFWEIVHSFTDEQKRLFLQFTTGTDRAPVGGLGKLKMIIAKNGPDTERLPTSHTCFNVLLLPEYSSKEKLKERLLKAITYAKGFGML
  stoichiometry N: 2
